B1: human SIDT2, full-length (purified, used for cryo-EM and blue native gel) (natural protein, UniProt Q8NBJ9 19-832, looked up)
chain: HLGVLGPKNVSQKDAEFERTYVDEVNSELVNIYTFNHTVTRNRTEGVRVSVNVLNKQKGAPLLFVVRQKEAVVSFQVPLILRGMFQRKYLYQKVERTLCQPPTKNESEIQFFYVDVSTLSPVNTTYQLRVSRMDDFVLRTGEQFSFNTTAAQPQYFKYEFPEGVDSVIVKVTSNKAFPCSVISIQDVLCPVYDLDNNVAFIGMYQTMTKKAAITVQRKDFPSNSFYVVVVVKTEDQACGGSLPFYPFAEDEPVDQGHRQKTLSVLVSQAVTSEAYVSGMLFCLGIFLSFYLLTVLLACWENWRQKKKTLLVAIDRACPESGHPRVLADSFPGSSPYEGYNYGSFENVSGSTDGLVDSAGTGDLSYGYQGRSFEPVGTRPRVDSMSSVEEDDYDTLTDIDSDKNVIRTKQYLYVADLARKDKRVLRKKYQIYFWNIATIAVFYALPVVQLVITYQTVVNVTGNQDICYYNFLCAHPLGNLSAFNNILSNLGYILLGLLFLLIILQREINHNRALLRNDLCALECGIPKHFGLFYAMGTALMMEGLLSACYHVCPNYTNFQFDTSFMYMIAGLCMLKLYQKRHPDINASAYSAYACLAIVIFFSVLGVVFGKGNTAFWIVFSIIHIIATLLLSTQLYYMGRWKLDSGIFRRILHVLYTDCIRQCSGPLYVDRMVLLVMGNVINWSLAAYGLIMRPNDFASYLLAIGICNLLLYFAFYIIMKLRSGERIKLIPLLCIVCTSVVWGFALFFFFQGLSTWQKTPAESREHNRDCILLDFFDDHDIWHFLSSIAMFGSFLVLLTLDDDLDTVQRDKIYVF
modifications: N-glycosylation (six sites on the ECD resolved in the EM map); disulfide bonds
notes: SIDT2, human, full-length; Homodimer in the cryo-EM map; the self rows mean protomer with protomer; also called SID-1 transmembrane family member 2; source: cloned, expressed and purified
B2: human SIDT1, full-length (purified, used for cryo-EM and blue native gel) (natural protein, UniProt Q9NXL6 20-827, looked up)
chain: ASPGHPAKSPRQPPAPRRDPFDAARGADFDHVYSGVVNLSTENIYSFNYTSQPDQVTAVRVYVNSSSENLNYPVLVVVRQQKEVLSWQVPLLFQGLYQRSYNYQEVSRTLCPSEATNETGPLQQLIFVDVASMAPLGAQYKLLVTKLKHFQLRTNVAFHFTASPSQPQYFLYKFPKDVDSVIIKVVSEMAYPCSVVSVQNIMCPVYDLDHNVEFNGVYQSMTKKAAITLQKKDFPGEQFFVVFVIKPEDYACGGSFFIQEKENQTWNLQRKKNLEVTIVPSIKESVYVKSSLFSVFIFLSFYLGCLLVGFVHYLRFQRKSIDGSFGSNDGSGNMVASHPIAASTPEGSNYGTIDESSSSPGRQMSSSDGGPPGQSDTDSSVEESDFDTMPDIESDKNIIRTKMFLYLSDLSRKDRRIVSKKYKIYFWNIITIAVFYALPVIQLVITYQTVVNVTGNQDICYYNFLCAHPLGVLSAFNNILSNLGHVLLGFLFLLIVLRRDILHRRALEAKDIFAVEYGIPKHFGLFYAMGIALMMEGVLSACYHVCPNYSNFQFDTSFMYMIAGLCMLKLYQTRHPDINASAYSAYASFAVVIMVTVLGVVFGKNDVWFWVIFSAIHVLASLALSTQIYYMGRFKIDLGIFRRAAMVFYTDCIQQCSRPLYMDRMVLLVVGNLVNWSFALFGLIYRPRDFASYMLGIFICNLLLYLAFYIIMKLRSSEKVLPVPLFCIVATAVMWAAALYFFFQNLSSWEGTPAESREKNRECILLDFFDDHDIWHFLSATALFFSFLVLLTLDDDLDVVRRDQIPVF
modifications: N-glycosylation (three sites resolved in the EM map); disulfide bonds C130-C222 and C212-C271
notes: SIDT1, human, full-length; Homodimer in the cryo-EM map; the self rows mean protomer with protomer; also called SID-1 transmembrane family member 1; source: cloned, expressed and purified

Columns and labels:
[1] = biological target: truncated extracellular domain of SIDT2 (SIDT2^ECD) (human); test: AUC; sedimentation velocity (SV-AUC) of the truncated ECDs in solution, no RNA
[2] = biological target: the molecule itself; test: cryo-EM structure; single-particle cryo-EM of SIDT1 (3.33 Å) and SIDT2 (3.17 Å); homodimers with a two-fold axis

Molecule	stoichiometry N [1]	stoichiometry N [2]
truncated extracellular domain of SIDT2 (SIDT2^ECD) (domain or fragment)	2	–
B1	–	2
B2	–	2
